Test results as given in patent US10000771B2, “Nuclear targeting sequences” (Yeda Research and Development Co. Ltd., priority 2007, dated 2018).

Key:
CHO cells = assay: Fluorescence microscopy of ERK2 constructs (subcellular localization); format: cell-based; details: overexpressed in CHO (and COS7) cells, serum-starved, fluorescent microscope
Method: FIGS. 1A-1R are photomicrographs illustrating the role of SPS in the non-regulated accumulation of ERK2 in the nucleus. CHO (FIGS. 1A-F and 1M-R) or COS7 cells (FIGS. 1G-L) were grown on cover slips and transfected with WT-ERK2, or the mutants 244-6A and Δ244-6. Twenty-four hr following transfection, the cells were serum-starved (16 hr), fixed, stained with DAPI and visualized using a fluorescent microscope.
FIGS. 2A-2X are photomicrographs illustrating the role of SPS in the stimulated nuclear translocation of ERK2. CHO cells were grown on cover slips and co-transfected with HA-MEK1 together with either WT-ERK2, 244-6A, or Δ244-6. Twenty-four hr after transfection, the cells were serum starved for 16 hours, treated with TPA (250 nM, 15 min), except in WT-10 where the cells were treated with 10 nM TPA for 15 min. After treatments the cells were fixed and stained with either anti-HA Ab or DAPI.
FIGS. 5A-5F are photomicrographs illustrating that mutating the Ser residues in the SPS to Glu induces the nuclear accumulation of ERK2. CHO cells were grown on cover slips and transfected with WT-GFP-ERK2 (WT), APA-GFP-ERK2 (APA), or EPE-GFP-ERK2 (EPE). Twenty-four hr after transfection, the cells were serum-starved, fixed, stained with DAPI and visualized by a fluorescent microscope.
FIGS. 7A-7H are photomicrographs illustrating that EPE-ERKs translocates to the nucleus faster than WT-ERK. CHO cells were transfected with WT-GFP-ERK2 (WT) and EPE-GFP-ERK2 (EPE). Eight (FIGS. 7A-D) or twelve (FIGS. 7E-H) hours after transfection the cells were fixed, stained with DAPI and visualized by a fluorescent microscope.
Immunofluorescence Microscopy. Cells were fixed (30 min in 3% paraformaldehyde in PBS or 10 min with ice-cold methanol), followed by 5-min permeabilization with 0.2% Triton X-100 in PBS (23° C.). The fixed cells were sequentially incubated with the appropriate Abs (45 min) followed by rhodamine-conjugated secondary Abs (45 min) and DAPI. Slides were visualized using a fluorescence microscope (Nikon, Japan) at 400× magnifications. […]

Nup153c = assay: Interaction with recombinant His-Nup153c; format: binding; details: immunoprecipitated ERK2 incubated with 0.5 μg recombinant His-Nup153c
Method: FIGS. 19A-19C are autoradiographs illustrating that phospho-SPS interacts with importin-7 and releases Nup153c binding without involvment of importin-β. […]. Interaction of ERK2 with Importin-7 is enhanced by EGF stimulation and EPE mutation. HeLa cells overexpressing WT-ERK (WT), ERK-APA (APA), ERK-EPE (EPE) or GFP were serum starved and treated with EGF (50 ng/ml, 10 min). The extracts of the treated cells were then subjected to coimmunoprecipitation using A/G beads pre-conjugated with anti GFP Ab and mild washes. The coimmunoprecipitated importin-7 (first panel) and importin-β (third panel), as well as their loading amounts (panels 2 and 4 respectively) were determined by WB using anti importin-7 (αImp7) and importin-β (αImpβ) Abs. The equal amount of immunoprecipitated ERKs was determined with anti GFP (αGFP; IP) Ab. FIG. 19B. Interaction of 2GFP-SPS and its mutants with importin-7. HeLa cells overexpressing 2GFP, 2GFP-SPS, 2GFP-APA and 2GFP-EPE constructs were subjected to coimmunoprecipitation as described in FIG. 19A (without EGF stimulation). FIG. 19C. Interaction of NUP153 with WTERK2 and its APA and EPE mutants. NUP153c is elevated in APA-ERK2, but reduced in EPE-ERK2. Immunoprecipitated and stringently washed WT-ERK2 (WT), APA-ERK2 (APA) or ERK2 from […] cells pre-treated with or without TPA (250 nM, 15 min) were incubated with 0.5 μg recombinant His-Nup153c. […]

B1: APA-ERK2: GFP-ERK2 with the two Ser residues of the SPS sequence replaced by Ala (protein)
chain: MAAAAAAGPEMVRGQVFDVGPRYTNLSYIGEGAYGMVCSAYDNLNKVRVAIKKISPFEHQTYCQRTLREIKILLRFRHENIIGINDIIRAPTIEQMKDVYIVQDLMETDLYKLLKTQHLSNDHICYFLYQILRGLKYIHSANVLHRDLKPSNLLLNTTCDLKICDFGLARVADPDHDHTGFLTEYVATRWYRAPEIMLNSKGYTKSIDIWSVGCILAEMLSNRPIFPGKHYLDQLNHILGILGAPAQEDLNCIINLKARNYLLSLPHKNKVPWNRLFPNADSKALDLLDKMLTFNPHKRIEVEQALAHPYLEQYYDPSDEPIAEAPFKFDMELDDLPKEKLKELIFEETARFQPGYRS
modifications: left off: large carriers
subcellular localization in quiescent cells (CHO cells): cytoplasmic distribution
interaction with Nup153 (Nup153c): increased
